The labels stand for the following.
B1: FAM189A2 (parent)
chain: VAAALRYLQIFATRRSCIDESQIS
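Further: lentivirally expressed fusions sorted by FACS into six bins by GFP to DsRed ratio, PSI derived from sequencing read proportions per bin multiplied by bin number.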

The variants in the data set derive from B1. As to the kind of experiment: protein stability index of a GFP-peptide fusion (GPS, HEK-293T) (PSI 1-6); higher = more stable. The settings on record: c terminus: a fixed tail appended.
As for VAAAPRYLQIFATRRSCIDESQIS [L5P], the protein stability index was 2.08.

VAAASRYLQIFATRRSCIDESQIS [L5S]: the protein stability index stood at 1.41. For the variant VAAAWRYLQIFATRRSCIDESQIS [L5W], the protein stability index is 3.03. With VAAAIRYLQIFATRRSCIDESQIS [L5I], the protein stability index turned out to be 3.7. Under VAAAMRYLQIFATRRSCIDESQIS [L5M] stands 1.46; under VAAANRYLQIFATRRSCIDESQIS [L5N], 1.92. Under VAAAVRYLQIFATRRSCIDESQIS [L5V] stands 4.11. With VAAAARYLQIFATRRSCIDESQIS [L5A], the protein stability index is 3.88. With VAAAYRYLQIFATRRSCIDESQIS [L5Y] the figure was 3.26; with VAAAFRYLQIFATRRSCIDESQIS [L5F], 2.43; with VAAAERYLQIFATRRSCIDESQIS [L5E], 1.87. With VANALRYLQIFATRRSCIDESQIS [A3N] the figure was 2.98; with VASALRYLQIFATRRSCIDESQIS [A3S], 1.97; with VAWALRYLQIFATRRSCIDESQIS [A3W], 3.75. With VAYALRYLQIFATRRSCIDESQIS [A3Y] the figure was 3; with VAIALRYLQIFATRRSCIDESQIS [A3I], 4.72. As for VAPALRYLQIFATRRSCIDESQIS [A3P], the protein stability index was 1.52. With VAHALRYLQIFATRRSCIDESQIS [A3H] the figure was 2.27. With VAFALRYLQIFATRRSCIDESQIS [A3F] the figure was 1.83. With VAGALRYLQIFATRRSCIDESQIS [A3G] the figure was 2.61; with VAEALRYLQIFATRRSCIDESQIS [A3E], 2.34; with VAVALRYLQIFATRRSCIDESQIS [A3V], 3.92. For VACALRYLQIFATRRSCIDESQIS [A3C], the protein stability index worked out at 2.42. With VAQALRYLQIFATRRSCIDESQIS [A3Q] the figure was 1.8; with VATALRYLQIFATRRSCIDESQIS [A3T], 4.19. With VARALRYLQIFATRRSCIDESQIS [A3R], the protein stability index was determined as 1.71.

For VLAALRYLQIFATRRSCIDESQIS [A2L], the protein stability index is 2.9. As for VEAALRYLQIFATRRSCIDESQIS [A2E], the protein stability index is 1.89. With VYAALRYLQIFATRRSCIDESQIS [A2Y] the figure was 2.15; with VFAALRYLQIFATRRSCIDESQIS [A2F], 1.74; with VPAALRYLQIFATRRSCIDESQIS [A2P], 2.46.

Regarding VWAALRYLQIFATRRSCIDESQIS [A2W], the protein stability index was 3.06. With VKAALRYLQIFATRRSCIDESQIS [A2K] the figure was 3.28; with VGAALRYLQIFATRRSCIDESQIS [A2G], 2.53; with VCAALRYLQIFATRRSCIDESQIS [A2C], 2.64. With VQAALRYLQIFATRRSCIDESQIS [A2Q] the figure was 2.29; with VIAALRYLQIFATRRSCIDESQIS [A2I], 4.56. With VDAALRYLQIFATRRSCIDESQIS [A2D] the figure was 2.63.

Regarding VRAALRYLQIFATRRSCIDESQIS [A2R], the protein stability index was 2. Under VMAALRYLQIFATRRSCIDESQIS [A2M] stands 1.99; under VNAALRYLQIFATRRSCIDESQIS [A2N], 1.27; under EAAALRYLQIFATRRSCIDESQIS [V1E], 1.58. With CAAALRYLQIFATRRSCIDESQIS [V1C] the figure was 1.68; with QAAALRYLQIFATRRSCIDESQIS [V1Q], 2.38; with MAAALRYLQIFATRRSCIDESQIS [V1M], 1.95.

As to GAAALRYLQIFATRRSCIDESQIS [V1G], the protein stability index was found to be 1.67. With AAAALRYLQIFATRRSCIDESQIS [V1A] the figure was 3.21. Under SAAALRYLQIFATRRSCIDESQIS [V1S] stands 1.38; under NAAALRYLQIFATRRSCIDESQIS [V1N], 1.89; under HAAALRYLQIFATRRSCIDESQIS [V1H], 2.36. As for TAAALRYLQIFATRRSCIDESQIS [V1T], the protein stability index worked out at 3.71. Under YAAALRYLQIFATRRSCIDESQIS [V1Y] stands 1.07; under RAAALRYLQIFATRRSCIDESQIS [V1R], 2.21. With PAAALRYLQIFATRRSCIDESQIS [V1P] the figure was 1.56; with KAAALRYLQIFATRRSCIDESQIS [V1K], 1.65. Under WAAALRYLQIFATRRSCIDESQIS [V1W] stands 1.79; under DAAALRYLQIFATRRSCIDESQIS [V1D], 1.82; under VAAALRELQIFATRRSCIDESQIS [Y7E], 2.41. Turning to VAAALRALQIFATRRSCIDESQIS [Y7A], the protein stability index is 1.95. Under VAAALRCLQIFATRRSCIDESQIS [Y7C] stands 2.06. Under VAAALRDLQIFATRRSCIDESQIS [Y7D] stands 1.76; under VAAALQYLQIFATRRSCIDESQIS [R6Q], 2.54; under VAAALHYLQIFATRRSCIDESQIS [R6H], 2.98. Take VAAALNYLQIFATRRSCIDESQIS [R6N]: the protein stability index worked out at 1.23.

Take VAAALCYLQIFATRRSCIDESQIS [R6C]: the protein stability index is 3.52. With VAAALDYLQIFATRRSCIDESQIS [R6D] the figure was 1.69. With VAAALGYLQIFATRRSCIDESQIS [R6G] the figure was 1.81; with VAAALLYLQIFATRRSCIDESQIS [R6L], 3.52. As to VAAALKYLQIFATRRSCIDESQIS [R6K], the protein stability index was 1.68.

Regarding VAAALEYLQIFATRRSCIDESQIS [R6E], the protein stability index turned out to be 2.75. Turning to VAAALTYLQIFATRRSCIDESQIS [R6T], the protein stability index was 2.41. On to VAAALYYLQIFATRRSCIDESQIS [R6Y], for which the protein stability index came to 2.79. Consider VAAALIYLQIFATRRSCIDESQIS [R6I], for which the protein stability index amounted to 4.08. With VAAALSYLQIFATRRSCIDESQIS [R6S] the figure was 1.89; with VAAALMYLQIFATRRSCIDESQIS [R6M], 4.04. Regarding VAAALPYLQIFATRRSCIDESQIS [R6P], the protein stability index came out at 2.76.

With VAAALVYLQIFATRRSCIDESQIS [R6V], the protein stability index amounted to 2.96. On to VAACLRYLQIFATRRSCIDESQIS [A4C], for which the protein stability index stood at 2.83. With VAAPLRYLQIFATRRSCIDESQIS [A4P] the figure was 3.34; with VAAGLRYLQIFATRRSCIDESQIS [A4G], 2.23. With VAALLRYLQIFATRRSCIDESQIS [A4L] the figure was 3.72. With VAAFLRYLQIFATRRSCIDESQIS [A4F] the figure was 1.65; with VAARLRYLQIFATRRSCIDESQIS [A4R], 2.09. For the variant VAANLRYLQIFATRRSCIDESQIS [A4N], the protein stability index amounted to 2.83. Under VAAELRYLQIFATRRSCIDESQIS [A4E] stands 1.25. As for VAAHLRYLQIFATRRSCIDESQIS [A4H], the protein stability index is 1.89. With VAAILRYLQIFATRRSCIDESQIS [A4I] the figure was 2.64; with VAASLRYLQIFATRRSCIDESQIS [A4S], 1.88; with VAATLRYLQIFATRRSCIDESQIS [A4T], 1.88. With VAAQLRYLQIFATRRSCIDESQIS [A4Q] the figure was 2.73.

Turning to VAADLRYLQIFATRRSCIDESQIS [A4D], the protein stability index was determined as 2.19. For the variant VAAWLRYLQIFATRRSCIDESQIS [A4W], the protein stability index turned out to be 2.27. With VAAMLRYLQIFATRRSCIDESQIS [A4M] the figure was 3.33; with VAAYLRYLQIFATRRSCIDESQIS [A4Y], 2.02.
